The target of this experiment is T1, RANK (Receptor Activator for Nuclear Factor κB) (UniProt Q9Y6Q6 30-616, limits assumed).
T1 construct: whole, on cells; Endogenous receptor on THP1 monocytes; also called RANKL receptor
T1 sequence (looked up): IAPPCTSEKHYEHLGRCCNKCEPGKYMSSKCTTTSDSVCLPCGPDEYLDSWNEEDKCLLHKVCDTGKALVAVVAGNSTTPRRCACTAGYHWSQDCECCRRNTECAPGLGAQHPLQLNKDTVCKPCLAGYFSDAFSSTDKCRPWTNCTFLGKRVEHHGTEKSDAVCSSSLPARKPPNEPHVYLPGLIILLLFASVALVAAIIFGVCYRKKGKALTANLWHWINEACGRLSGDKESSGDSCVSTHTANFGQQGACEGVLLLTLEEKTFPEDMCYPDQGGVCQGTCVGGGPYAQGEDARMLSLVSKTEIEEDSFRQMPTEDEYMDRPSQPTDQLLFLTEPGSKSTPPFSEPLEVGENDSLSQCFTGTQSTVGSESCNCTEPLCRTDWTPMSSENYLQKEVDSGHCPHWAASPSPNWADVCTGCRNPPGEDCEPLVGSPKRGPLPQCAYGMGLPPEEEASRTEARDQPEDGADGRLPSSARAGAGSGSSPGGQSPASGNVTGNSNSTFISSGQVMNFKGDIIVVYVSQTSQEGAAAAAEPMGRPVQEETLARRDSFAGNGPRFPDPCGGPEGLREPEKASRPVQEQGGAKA
Description: flow cytometry; 5 µg RIG on 1*10^6 THP1 monocytes, detected with FITC labeled anti human RANKL antibody. The procedure:
1*10⁶ THP1 monocytes were grown in MCSF and RANKL medium for 72 hours and mixed with 5 μg purified RIG protein from Implementation 1 for additional 1 hour at 4° C. 5 μl FITC labeled anti human RANKL antibody (CALTAG, CA) was then added into the mixture and flow cytometry was used to examine FITC positive cells. […] In FIG. 4, SSC-H presents the pellet number in cytoplasm, FSC-H presents the cell size, FL2-H presents PE and FL1-H presents FITC.

B1: fusion protein RIG (Fc fusion)
chain: MRRASRDYTKYLRGSEEMGGGPGAPHEGPLHAPPPPAPHQPPAASRSMFVALLGLGLGQVVCSVALFFYFRAQMDPNRISEDGTHCIYRILRLHENADFQDTTLESQDTKLIPDSCRRIKQAFQGAVQKELQHIVGSQHIRAEKAMVDGSWLDLAKRSKLEAQPFAHLTINATDIPSGSHKVSLSSWYHDRGWAKISNMTFSNGKLIVNQDGFYYLYANICFRHHETSGDLATEYLQLMVYVTKTSIKIPSSHTLMKGGSTKYWSGNSEFHFYSINVGGFFKLRSGEEISIEVSNPSLLDPDQDATYFGAFKVRDIDGSEPKSCDKTHTCPPCPAPELLGGPSVFLFPPKPKDTLMISATPEVTCVVVDVSHEDPEVKFMWYVDGVEVHNAKTKPAEEQYNSTYAVVSVLTVLHQDWLNGKEYKCKVSNKALPAPIEKTISKAKGQPAEPQVYTLPPSRDELTYNQVSLTCLVKGFYPSDIAVEWESNGQPENNYKTTPPVLDSDGSFFLYSKLTVDKSRWQQGNVFSCSVMHEALHNHYTQKSLSLSPGK
notes: also called RANKL-Fcγ fusion protein; RIG protein
With B1, the binding result was “binds”.

The values are drawn from patent US20110243944A1 (SHANGHAI KEXIN BIOTECH, published 2011).
